Experimental data reported in paper PMC4552487.

Molecular target: Parkin 80-465 (UniProt O60260)
Test: AlphaScreen, competition with GST-Ubl (1-76)
Conditions: reference: unphosphorylated Ubl (1-76); sites S65

binding against the reference: weaker
Substance: Parkin Ubl domain, 1-76 (from UniProt O60260) Ubl (1-76) phosphorylated by TcPINK1, Mono-Q purified
